Measured values reported in the DeepSol protein solubility set.

Assay: soluble on expression in E. coli; label from the status in PepcDB or PDB records

Sequence	soluble on expression in E. coli
MPVERVIDRPTPEEHLLERILATENMDLAWKRVRANKGAPGVDGVTIDAFPERFRPLWGDIRASLATGTYQPQPVLRVEIPKPTGGTRPLGIPTVLDRLIQQATAQVLTPIFDPEFSASSFGFRPGRSAHNAVRQLREYLRQGYRIAVDIDLAKFFDTVNHDLLMTMVGRRVRDKRVLTLIGRYLRAGVEVDGRLEKTRMGVPQGGPLSPLLANILLDHLDKELESRGHKFVRYADDFVILVKSERAGERVMGSVRKYLTNKLKLTVNEDKSKVARSGDLSFLGFVFKGTKILWSDQAYKEFRRRVRKYTGRSWFVSMEYRLNKLSTYLRGWMGYFGIAEAYRDIPEIDGWIRRRVRLCYWKQWRWCRTKIRNLLKLGVQLGTSIRAGLNRNGPWAMSRRLAAQHGMTNQWLKDQGLVSVKELWVKIHYPATARLEHHHHHH	not soluble
AGHMVSCCYRSLAAPDLTLRDLLDIVETSQAHNARAQLTGALFYSQGVFFQWLEGRPAAVAEVMTHIQRDRRHSNVEILAEEPIAKRRFAGWHMQLSCSEADMRSLGLAESRQIVTVGRSL	soluble
ATDMWLERAADVSWEAGAAITGTSERLDVQLDDDGDFHLLNDPGVGGGGSGGGGGGVFWDTPSPKVYPKGDTTPGVYRIMARGILGRYQAGVGVMHEGVFHTLWHTTRGAAIMSGEGRLTPYWGNVKEDRVTYGGPWKLDQKWNGVDDVQMIVVEPGKPAINVQTKPGIFKTAHGEIGAVSLDYPIGTSGSPIVNSNGEIIGLYGNGVILGNGAYVSAIVQGERVEEPVPEAYNPEMLKKRQLTVLDLHPGAGKTRRILPQIIKDAIQKRLRTAVLAPTRVVAAEMAEALRGLPVRYLTPAVQREHSGNEIVDVMCHATLTHRLMSPLRVPNYNLFVMDEAHFTDPASIAARGYIATRVEAGEAAAIFMTATPPGTSDPFPDTNSPVHDVSSEIPDRAWSSGFEWITDYAGKTVWFVASVKMSNEIAQCLQRAGKRVIQLNRKSYDTEYPKCKNGDWDFVITTDISEMGANFGASRVIDCRKSVKPTILDEGEGRVILSVPSAITSASAAQRRGRVGRNPSQIGDEYHYGGGTSEDDTMLAHWTEAKILLDNIHLPNGLVAQLYGPERDKTYTMDGEYRLRGEERKTFLELIKTADLPVWLAYKVASNGIQYNDRKWCFDGPRSNIILEDNNEVEIITRIGERKVLKPRWLDARVYSDHQSLKWFKDFAAGKR	soluble
MLLNLDVRMQLKELAQKEFKEPVSIKLFSQAIGCESCQTAEELLKETVEVIGEAVGQDKIKLDIYSPFTHKEETEKYGVDRVPTIVIEGDKDYGIRYIGLPAGLEFTTLINGIFHVSQRKPQLSEKTLELLQVVDIPIEIWVFVTTSCGYCPSAAVMAWDFALANDYITSKVIDASENQDLAEQFQVVGVPKIVINKGVAEFVGAQPENAFLGYIMAVYEKLKREKEQA	soluble
MRAEDLFNDPKSYKRWYELHSKLYENERNVVRSFNLKDCLDVGSGPDIFHEEIGGRIVALDISLLMLKESKSDEKVLADALHLPFRDNSFKCVFSSVTVCFIEDVKGFIREMARITKERAIICFIARDSPWGEYYENLGKSGHKYYSHARFISRREFYVIINDFMKISRIRSTLKKMSETEIDGVYNDDSGSFICVEAIPMKPEPLSLSLNRHSGADPADPIS	not soluble
RIVEIPVCYGGEFGPDLEEVAKINQLSPEEVIDIHTNGEYVVYMLGFAPGFPFLGGMSKRIAAPRKSSPRPSIPAGSVGIAGLQTGVYPISTPGGWQLIGKTPLALFRPQENPPTLLRAGDIVKFVRISEKDYHAYKEESN	soluble
MGSDKIHHHHHHMTVAVDLPIPAKLVPVFTKENVRYRGAHGGRGSAKTRTFAMMSAVRAYQAAESGTSGVILCAREFMNSLEESSMEEVKQAIRSIPWLDDYFEIGEKYIRTKNRLVNYVFCGLRHNLDSIKSKARILLAWIDEAESVSETAWKKLRPTVRESGSEIWVTWNPEKDGSATDKRLRKKPPKSSIIVEMNYSDNPWFPDVLEEERQEDLESLDHSDYAWIWEGAYLENSEKQVLANKYKIESFPDDLWMQADRLLFGADFGFARDPSTLLRMFILDNCLYIDREAYSVGVELDHMPAFYDQVPESRKWPIKADSARPETISYLKRQGFNISAAKKWQGSVEDGITFLRGFKKIIIHPRCKETAKEARLYSYKVDRITGEVLPIIEDAHNHCWDAARYGLDGYIKGRTTVWDIM	not soluble
WQENMLIPMMAINEDNLWVHQKYGYAIPRRNGKTEVVYILELWALHKGLKILHTAHRISTSHSSFEKVKKYLEMSGYVDGEDFISNKAKGQERIEFKSSGSVIQFRTRTSNGGLGEGFDLLIIDEAQEYTAEQESALKYTVTDSDNPMTIMCGTPPTMVSTGTVFESYRKECLKGDRRYSGWAEWSVDEMQPIHDVKSWYVANPSMGYHLNERKIEAELGEDEIDHNIQRLGYWPSFNQKSVISEKEWAKLKVEQVPELKSKLFVGIKFGQDGNNVSLSIAARASENKVFVEAIDCLSVRNGTQWIINFLKSADIAKVVVDGASGQELLAQEMREHGLKKPELPKVAEIITANTMWEQGIMQETICHNDQPSLTAVVTNCEKRQIGSNGGFGYKSLYDDRDISLMDSALLAHWICYTTKPKRKQRTSC	not soluble
DIECPTCGRPMGIRTASTGVFLGCSGYALPPKERCKTTINLGDEEGIINVLEEDVETAALRAKKRCPICETAMDAYLIDDKRKMHVCGNNPNCEGYVVEYGEFKVKGYDGPVVECDKCGSDMVLKNGRFGKYMDCTSETCKNTRKILK	not soluble
MGSDKIHHHHHHMNIAIDARGINLYRGTGIGTYTENLVRELLNIDEENSYTLYWYGNNYKDFIKSNTKINIVSKGCHSFFEKCYFPENIIKNSIEIYHVPQNGIGLDQNVSCIKVSTVHDLIPYIMPETVGKGYLLKFLKNMPFIIENSDAILTVSEYSKKDILKYFPINEDKIYVTPLAANYNYKPLSREHCKKFIEKNYSISDPFVLYLGGFSKRKNVRNLILAFADASKKLSKKHNLVIIGLCRDELESLKDLCRHLNISNEVIFTGYIGERFLPVFYNACELFVYPSLYEGFGLPVLEAMSCKTPVVTSNISSIPEIAGDSAVLINPLDTSELRDAILNILEDSKLKQKLSIEGFNRSRKFSWKNTSKKTLEAYSNIYNTFA	not soluble
MLLVMGAHESGLDRARLQSLYEQLVATNEDETEKLAASGHSTGLVASEWARFLAPFDFGYRLVALQRESKRVAAALTRALYGIDTSGASEHDPLWAVEHRVLPVPVTDRLLFCEMRFLLVLALSRRLWMRLERVDPLGQENPFPRDAEIIERVEDLARQSRERLALLAERSPEALNAGKQEAHDCIEDLRTKETRAAEQVAGFAQALGDAALLEKVWHALVDEIAQNRQLNHALLQTLCQWVLMLIGADTEVPSSASCSDE	soluble
MGSDKIHHHHHHMPRQWNTDALSAGHLSCSSFFPFALTNKIIGRIKKKNNRMKGNNQLCTLLKLCLLSMLAFGTAKAQIQIVGAPSMKALDDSPNRLQVFMLHTLNPASVILRFAGAGTGKLYRYTTKAIEAEEVTTATYSDGMWTLTAPQLNCGYFVSGDGRLPQYYWISNYADYALFVSAVTGKPSETSPCISMDLAVDAAIRPIPYFQPNGIPRRLDRHVQISYPDMEWDAEARLFRPSTKEVEVEASDDERTLVVSASLADAVYTIHGDRFTKELSLPFTAVATDEILTPKVEVYAFVDKVDGGSAIGDNTPEEGDASLVSAPFTVMLAAYGNEPSAANFVWRIYRTEEGAENSVLVYNGTSTEFTFRQAGIYSILLQATNRTGTCTDEVLLENYFKVAESSLIVPNAFSPYGSPGVNDVFRVKHSSLVHFDGRIFDSWGKQIFRWTNPDEGWDGKYRGKMMPTGVYYYVIEAEGADGIKYKRKGDINILRPAYEIPLGGNLPR	not soluble
MSKEPRIKILNGQTVQVRKEDHTIMNPLRWCIGKNFTGEKVELVGYTIPHPSDDISNITIQLCDESLQTPPNLLKKLVEGLECMEAIGAKIASEIERSKGGFNK	not soluble
MPAVESNMFPLGKQAPPFALTNVIDGNVVRLEDVKSDVATVIMFICNHCPFVKHVQHELVRLANDYMPKGVSFVAINSNDAEQYPEDSPENMKKVAKELGYPFPYLYDETQEVAKAYDAACTPDFYIFDRELKCVYRGQLDDSRPNNGIPVTGESIRAALDALLEGRPVPEKQKPSIGCSIKWKPSA	not soluble
GPGSMAPLPRKALLAITSAHPPFWPDGKRTGLFFSEALHPFNELTAAGFEVDVASETGTFGWDEHSLTQEYLSKEDEKVLHSEHNHFMEKMNKQVFKAGDLAPHDYGLMFVCGGHGALYDFPHAKHLQNIAQDIYKRGGVIGAVCHGPAMLPGIHDENGDSVIKDKTVTGFTTKGEIMIKVIDKMREDHLHTIADMAQTANAEYVPPEDPWDDFCKVDGRIVTGANPQSATNTARDTIKVYEGIVNE	soluble
MKQVKIMFLMTMFLGIGLLFFSENAEAAITSNEIGTHDGYDYEFWKDSGGSGSMTLNSGGTFSAQWSNVNNILFRKGKKFDETQTHQQIGNMSINYGATYNPNGNSYLTVYGWTVDPLVEFYIVDSWGTWRPPGGTPKGTINVDGGTYQIYETTRYNQPSIKGTATFQQYWSVRTSKRTSGTISVSEHFRAWESLGMNMGNMYEVALTVEGYQSSGSANVYSNTLTIGGQSGGEQATRVEAESMTKGGPYTSNITSPFNGVALYANGDNVSFNHSFTKANSSFSLRGASNNSNMARVDLRIGGQNRGTFYFGDQYPAVYTINNINHGIGNQLVELIVTADDGTWDAYLDYLEIR	soluble
MAHHHHHHMMRIKQKAFVGKKICIAWEVLHDGKGWKAQGKALQILRFYAFSSEVYLMCRIRDADDKKQICNLVKAVDGIERHRVLFCTTEKGYEAFTRQIDPSLLITNNAAQVAFLKRVIQTLVLVGGDGVVASNVACVPSVEAIAVDLE	not soluble
AAQTTAAVEDMSMGAEDAPVTIVEYASFTCPHCANFEKEVLTPLKRDYIDTGKVRFTFREVYFDRYGLWAAMVARCGGEMRYFGIADLIFEQQKEWVTNDPAQVATNLRKIGKTAGLDDAALDACMNDQAKAEAMVAAFQKNSQADDITATPSLIINGTKHSNMSYEELKKIIDAELAK	not soluble
MGLEKVVLTGLGAGLIAVAARGQNPLATALKIEQNDEGETVVRDAVTIGKPAEQLYAVWRDLPGLPLLMTHLRSVEVLDDKRSRWTVEAPAPLGTVSWEAELTADEPGKRIAWRSLPGARIENSGEVLFRPAPGARGTEVVVRLTYRPPGGSAGAVIARMFNQEPSQQLRDDLMRFKREQELGLEHHHHHH	soluble
GPGSMVLVLVVGDTWVPQRASGVPEVFCKMFSPGRIHKLLITGGVGSKEMYDYLRTIAPEVHCVTSSVDRQWADHMPESVVLTVEGLKLGLIHGHQVPVGDKDSLAAVQRELDVDVLVSGSTHQSKYFEFDSHLFVNPGSLSGADTEYDVNVVPSFMLLDIQDKSVVTFIYQFHPEDETGGGGTATEDLAAAGMVPGLRIKKKEWAKE	not soluble
MSLCAAHAARPLALVMRLGYETAMSQIESLFVTRLYRARLSEHGPAIDPEEMEASCYSIAEDDEAGQEWCEENGYPGYTSYASLTDLPWRFPIFADLVTSLDAHVAAFAADLEFDLDGRKLVLEDLWINILPQGGMHSSHLHPHSVISGTTYVAMPEGASALKLEDPRSGRMMAAPTRTKTARRELQPFIYMKPDVGDVLLWESWLRHEVPMNMSEEERISVSFNYRWDEGHHHHHH	soluble
MGSDKIHHHHHHAQFKIGGKKINVGKVVQAGSDAAKAITLSDSDIAAMSKEYMQWMDTHNPLTAADSEYGKRLEKLTGHIKEVDGLKVNFGVYEVVDVNAFACGDGSVRICAGLMDIMTDDEVMAVVGHEIGHVIHTDSKDAMKSAYLRSAVKNAAGAASSTVSKLTDSELGAMAEALAGAQYSQKQESEADDYGFEFSIKHNIDPYAMYNALNKLLELSAEAPKESKFQKMFSSHPDTAKRVARAKEKADNYTKNK	not soluble
